Test results taken from IntAct's records for PubMed 15933069.

Columns and labels:
kmt5a_human KMT5A [1] = biological target: T1, kmt5a_human KMT5A (UniProt Q9NQR1)
T1 sequence: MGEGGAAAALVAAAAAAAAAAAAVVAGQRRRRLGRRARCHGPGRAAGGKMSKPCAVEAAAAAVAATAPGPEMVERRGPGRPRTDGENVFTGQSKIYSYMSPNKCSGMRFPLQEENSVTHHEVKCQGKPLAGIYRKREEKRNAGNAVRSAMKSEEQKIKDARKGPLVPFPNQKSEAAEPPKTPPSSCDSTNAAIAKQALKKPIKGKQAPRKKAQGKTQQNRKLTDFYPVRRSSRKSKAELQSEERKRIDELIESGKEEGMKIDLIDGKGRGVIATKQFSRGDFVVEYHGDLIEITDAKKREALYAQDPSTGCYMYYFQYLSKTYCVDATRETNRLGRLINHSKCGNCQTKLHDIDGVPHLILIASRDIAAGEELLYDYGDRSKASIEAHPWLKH

kmt5a_human KMT5A [2] = biological target: T1, kmt5a_human KMT5A; remark: listed apart in the source

effect of a mutation on the interaction (kmt5a_human KMT5A [1]) | effect of a mutation on the interaction (kmt5a_human KMT5A [2]) | Substance
decreasing interaction | – | Histone H4 (Homo sapiens) (from UniProt P62805) H19A
– | decreasing interaction | Histone H4 (Homo sapiens) (from UniProt P62805) H19Q
– | decreasing interaction | Histone H4 (Homo sapiens) (from UniProt P62805) H19Y
